Measured values published in patent US11965032.

What was measured:
[1] = biological target: C1q in the complement system (rabbit serum as the source of complement) (rabbit); experiment: cell-based or functional assay
[2] = biological target: FcγIIIA Receptor on the effector cells (human) (UniProt P08637); experiment: cell-based or functional assay
[3] = biological target: FcRn (human Fc receptor panel, Octet) (human) (UniProt P55899); experiment: BLI (Octet HTX), receptor on anti-penta-His biosensor, 1:1 model
[4] = biological target: FcγRI (human Fc receptor panel, Octet) (human) (UniProt P12314); experiment: as above
Sequence of FcγRI (human Fc receptor panel, Octet) (human) (P12314 16-288 limits assumed): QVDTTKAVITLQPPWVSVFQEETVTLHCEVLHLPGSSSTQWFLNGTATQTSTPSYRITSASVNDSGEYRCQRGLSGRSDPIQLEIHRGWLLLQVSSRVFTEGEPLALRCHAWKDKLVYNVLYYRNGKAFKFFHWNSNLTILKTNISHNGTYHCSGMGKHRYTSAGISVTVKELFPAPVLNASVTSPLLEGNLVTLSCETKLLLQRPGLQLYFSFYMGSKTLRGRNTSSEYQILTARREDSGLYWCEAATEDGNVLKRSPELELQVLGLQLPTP

[5] = biological target: FcγRIIA (human Fc receptor panel, Octet) (human) (UniProt P12318); experiment: as above
Sequence of FcγRIIA (human Fc receptor panel, Octet) (human) (P12318 36-218 limits assumed): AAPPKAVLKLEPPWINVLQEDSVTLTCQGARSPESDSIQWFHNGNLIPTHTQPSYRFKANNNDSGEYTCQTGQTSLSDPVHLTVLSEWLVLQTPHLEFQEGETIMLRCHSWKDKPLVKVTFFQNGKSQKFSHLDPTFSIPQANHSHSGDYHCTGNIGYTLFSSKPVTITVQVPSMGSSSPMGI

[6] = biological target: FcγRIIB/C (human Fc receptor panel, Octet) (human) (UniProt P31994); experiment: as above
Sequence of FcγRIIB/C (human Fc receptor panel, Octet) (human) (P31994 46-217 limits assumed): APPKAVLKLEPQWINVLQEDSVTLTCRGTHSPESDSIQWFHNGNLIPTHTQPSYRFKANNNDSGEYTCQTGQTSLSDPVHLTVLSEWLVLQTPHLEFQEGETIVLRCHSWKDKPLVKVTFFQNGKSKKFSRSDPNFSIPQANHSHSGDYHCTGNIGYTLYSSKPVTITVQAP

[7] = biological target: FcγRIIIA F158 (human Fc receptor panel, Octet) (human) (UniProt P08637); experiment: as above
Sequence of FcγRIIIA F158 (human Fc receptor panel, Octet) (human) (P08637 17-208 limits assumed): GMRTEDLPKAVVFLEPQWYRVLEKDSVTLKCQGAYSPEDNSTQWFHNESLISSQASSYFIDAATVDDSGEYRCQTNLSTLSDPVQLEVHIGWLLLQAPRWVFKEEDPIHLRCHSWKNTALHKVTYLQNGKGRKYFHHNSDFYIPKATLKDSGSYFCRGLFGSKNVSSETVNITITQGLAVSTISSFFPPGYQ

[8] = biological target: FcγRIIIA V158 (human Fc receptor panel, Octet) (human) (UniProt P08637); experiment: as above
Sequence of FcγRIIIA V158 (human Fc receptor panel, Octet) (human) (P08637 17-208 F176V limits assumed): as the sequence (P08637 17-208 limits assumed) above, with F160V counted along it

[9] = biological target: FcγRIIIB (human Fc receptor panel, Octet) (human) (UniProt O75015); experiment: as above
Sequence of FcγRIIIB (human Fc receptor panel, Octet) (human) (O75015 17-200 limits assumed): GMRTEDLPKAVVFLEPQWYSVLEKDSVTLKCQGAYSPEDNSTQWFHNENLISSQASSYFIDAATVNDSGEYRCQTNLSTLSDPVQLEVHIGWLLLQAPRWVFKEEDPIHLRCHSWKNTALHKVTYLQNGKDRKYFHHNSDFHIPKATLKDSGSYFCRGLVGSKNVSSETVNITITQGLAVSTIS

[10] = biological target: FcγRIIIa 158V receptor (SPR assay) (UniProt P08637); experiment: SPR, receptor amine-coupled to the chip, antibody injected, 1:1 kinetics
Sequence of FcγRIIIa 158V receptor (SPR assay) (P08637 17-208 F176V limits assumed): as the sequence (P08637 17-208 limits assumed) above, with F160V counted along it

[11] = biological target: FcγRIIIa 158F receptor (SPR assay) (UniProt P08637); experiment: SPR, receptor amine-coupled to the chip, antibody injected, steady state affinity
Sequence of FcγRIIIa 158F receptor (SPR assay) (P08637 17-208 limits assumed): as the sequence (P08637 17-208 limits assumed) above

[12] = biological target: CD20 on Jeko-1, Raji and Daudi cells (human) (UniProt P11836); experiment: cell-based MSD electrochemiluminescence binding assay on CD20 expressing Jeko-1 cells
Sequence of CD20 on Jeko-1, Raji and Daudi cells (human) (P11836 whole entry): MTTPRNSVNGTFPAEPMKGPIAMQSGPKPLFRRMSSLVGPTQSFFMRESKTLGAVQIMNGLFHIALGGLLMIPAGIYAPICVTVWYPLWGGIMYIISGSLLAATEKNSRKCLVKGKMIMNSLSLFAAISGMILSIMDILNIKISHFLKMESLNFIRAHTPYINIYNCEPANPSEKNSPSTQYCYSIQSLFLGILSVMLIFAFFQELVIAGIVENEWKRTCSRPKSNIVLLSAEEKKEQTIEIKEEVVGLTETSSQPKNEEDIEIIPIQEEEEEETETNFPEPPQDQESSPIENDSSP

[13] = biological target: HRP conjugated human C1q (human) (UniProt P02745); experiment: ELISA, antibody coated on the plate, HRP conjugated human C1q
Sequence of HRP conjugated human C1q (human) (P02745 23-245 limits assumed, chain 1 of 3): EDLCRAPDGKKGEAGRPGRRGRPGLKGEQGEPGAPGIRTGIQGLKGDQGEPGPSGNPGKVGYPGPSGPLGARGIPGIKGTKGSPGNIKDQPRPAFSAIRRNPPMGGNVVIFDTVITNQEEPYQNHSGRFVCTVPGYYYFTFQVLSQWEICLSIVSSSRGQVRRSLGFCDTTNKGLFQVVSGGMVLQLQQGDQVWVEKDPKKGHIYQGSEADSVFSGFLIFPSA
Sequence of HRP conjugated human C1q (human) (P02746 28-253 limits assumed, chain 2 of 3, further chain): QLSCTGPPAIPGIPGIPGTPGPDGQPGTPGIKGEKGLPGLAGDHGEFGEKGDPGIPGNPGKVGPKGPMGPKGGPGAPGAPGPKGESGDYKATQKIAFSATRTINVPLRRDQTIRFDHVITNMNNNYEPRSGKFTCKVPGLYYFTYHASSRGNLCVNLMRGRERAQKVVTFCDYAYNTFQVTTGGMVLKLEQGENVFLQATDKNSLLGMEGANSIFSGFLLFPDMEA
Sequence of HRP conjugated human C1q (human) (P02747 29-245 limits assumed, chain 3 of 3, further chain): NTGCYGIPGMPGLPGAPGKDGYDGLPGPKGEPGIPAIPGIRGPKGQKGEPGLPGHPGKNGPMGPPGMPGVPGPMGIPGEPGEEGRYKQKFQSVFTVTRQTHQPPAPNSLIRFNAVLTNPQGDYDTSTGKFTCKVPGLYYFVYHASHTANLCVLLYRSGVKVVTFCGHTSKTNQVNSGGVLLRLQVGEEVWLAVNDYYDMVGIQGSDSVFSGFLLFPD

[14] = biological target: FcγRIIIa 158F receptor (SPR assay) (UniProt P08637); experiment: SPR, relative to the TG-1101 reference standard
[15] = biological target: FcγRIIIa 158V receptor (SPR assay) (UniProt P08637); experiment: SPR, relative to the TG-1101 reference standard

Sequence of FcγIIIA Receptor on the effector cells (human) (P08637 17-254): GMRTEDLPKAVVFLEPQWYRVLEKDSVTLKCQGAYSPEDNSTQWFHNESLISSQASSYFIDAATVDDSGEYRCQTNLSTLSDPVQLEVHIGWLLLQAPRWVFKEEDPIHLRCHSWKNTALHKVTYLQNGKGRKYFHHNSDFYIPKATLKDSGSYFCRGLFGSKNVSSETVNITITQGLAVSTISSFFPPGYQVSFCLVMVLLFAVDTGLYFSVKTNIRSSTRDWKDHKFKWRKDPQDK

| CDC EC50 (Jeko-1 cells, rabbit serum complement) [1] | ADCC EC50 (Raji target cells, KILR CD16a effector cells) [2] | EC50 of ADCC assay Using Primary NK Cells (Raji target cells, LDH release) [2] | Kd [3] | Kd [4] | Kd [5] | Kd [6] | Kd [7] | Kd [8] | Kd [9] | Kd [10] | Kd [11] | EC50 [12] | EC50 [13] | Relative Affinity (%) [14] | Relative Binding (%) [14] | Relative Affinity (%) [15] | Relative Binding (%) [15] | Substance |
| --- | --- | --- | --- | --- | --- | --- | --- | --- | --- | --- | --- | --- | --- | --- | --- | --- | --- | --- |
| 353 ng/mL | 74.1 pg/mL | 500 µg/mL | 64 nM | 21 nM | 232 nM | 156 nM | 482 nM | 207 nM | 307 nM | 1640 nM | 14.8 µM | 0.092 µg/mL |  |  |  |  |  | ARZERRA (ofatumumab) (antibody) |
| 1210 ng/mL | 60.8 pg/mL |  | 62 nM | 19 nM | 624 nM | 362 nM | 592 nM | 138 nM | 2090 nM | 1030 nM | 6.76 µM |  | 2.9 µg/mL |  |  |  |  | OCREVUS (ocrelizumab) (antibody) |
|  | 6.58 pg/mL | 19 µg/mL | 39 nM | 26 nM | 281 nM | 225 nM | 98 nM | 40 nM | 277 nM | 242 nM | 1.79 µM | 0.053 µg/mL |  | 37.6% | 33% | 27.6% | 19.6% | GAZYVA (obinutuzumab) (antibody) |
| 245 ng/mL | 5460 pg/mL | 1390 µg/mL | 43 nM | 15 nM | 253 nM | 211 nM |  |  | 309 nM | 1200 nM | 6.96 µM | 0.133 µg/mL |  |  |  |  |  | RITUXAN (rituximab) (antibody) |
